Earlier results on 35 substances are cited in patent US7759315B2, “Treatment of inflammatory conditions of the intestine” (CSL Behring AG, priority 2005, dated 2010).

Non-standard residues stand in square brackets, D forms with d. No end group written: not given here. Nal = naphthylalanine (source code Z); Aib = CC(C)(N)C(=O)O

One data set has as its target T1, LCAT (Homo sapiens, UniProt P04180).
T1 sequence (P04180 25-440): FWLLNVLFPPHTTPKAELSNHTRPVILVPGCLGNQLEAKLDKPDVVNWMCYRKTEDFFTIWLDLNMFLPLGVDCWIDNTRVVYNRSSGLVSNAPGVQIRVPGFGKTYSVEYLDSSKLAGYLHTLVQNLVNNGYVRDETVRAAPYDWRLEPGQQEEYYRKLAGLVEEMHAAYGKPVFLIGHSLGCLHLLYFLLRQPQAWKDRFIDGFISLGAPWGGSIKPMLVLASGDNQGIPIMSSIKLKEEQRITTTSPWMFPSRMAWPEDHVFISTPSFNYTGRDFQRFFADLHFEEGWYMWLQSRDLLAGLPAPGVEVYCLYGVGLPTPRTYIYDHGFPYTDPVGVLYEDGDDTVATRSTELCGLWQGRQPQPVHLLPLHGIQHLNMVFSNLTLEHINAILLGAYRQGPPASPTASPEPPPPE

For data set [1] the following is noted: percent helicity; for He (%): micelles.

Consider DWLKAFYDKVFEKFKEFF [Peptide 245], for which, in the data set with LCAT, the “ACTIVITY (%) LCAT” value is 4%. Besides, the “He (%)” value in data set [1] is 77%.

With KLKQKLAELLENLLERFLDLVP [Peptide 99], the “ACTIVITY (%) LCAT” value with LCAT is 2%. Besides, in data set [1], the “He (%)” value is 88%.

Turning to “PVLDLFRELLNEXLWALKQKLK (PVLDLFRELLNE[Aib]LWALKQKLK; not fully specified (C-terminus)) [Peptide 72]”, the “ACTIVITY (%) LCAT” value with LCAT was 11%. Also, the “He (%)” value in data set [1] was “sp”.

In the case of PVLELFENLWERLLDALQKKLK [Peptide 149], in the data set with LCAT, the “ACTIVITY (%) LCAT” value is reported as 63%. Besides, the “He (%)” value in data set [1] is listed as 54%.

Regarding PVLDLFRELLNELLEWLKQKLK [Peptide 3], the “ACTIVITY (%) LCAT” value with LCAT is on record as 98%. Moreover, the “He (%)” value in data set [1] is recorded as 95%.

In the case of “PVLDLFRELLNELLEAZKQKLK (PVLDLFRELLNELLEA[Nal]KQKLK; not fully specified (C-terminus)) [Peptide 10]”, the “ACTIVITY (%) LCAT” value with LCAT was 79%. In data set [1], the “He (%)” value is 87%.

On to “DWLKAPYDKVAEKLKEAF (DWLKAFYDKVAEKLKEAF) [Peptide 244, 18A peptide (Anantharamiah et al., 1985), reference compound]”, for which the “ACTIVITY (%) LCAT” value with LCAT is 5%. Further, the “He (%)” value in data set [1] is on record as 40%.

PVLELFENLLERGLDALQKKLK [Peptide 154]: the “ACTIVITY (%) LCAT” value with LCAT is 39%. The “He (%)” value in data set [1] is on record as 76%.

With PVLDLFNELLRELLEALQKKLK [Peptide 40], the “ACTIVITY (%) LCAT” value with LCAT was 25%. Moreover, the “He (%)” value in data set [1] was 84%.

For the substance “PVLDEFREKLNEALEALKQKLK [Peptide 94, [A^13]-Consensus 22-mer peptide (Anantharamaiah et al., 1990), reference compound]”, the “ACTIVITY (%) LCAT” value in the data set with LCAT is given as 5%. The “He (%)” value in data set [1] is listed as 70%.

Regarding PVLDEFREKLNEPLEALKQKLK [Peptide 113], the “ACTIVITY (%) LCAT” value with LCAT is listed as 0%. The “He (%)” value in data set [1] was 22%.

Take “LDDLLQKWAEAFNQLLKK [Peptide 237, Id-3 peptide (Labeur et al., 1997), reference compound]”: in the data set with LCAT, the “ACTIVITY (%) LCAT” value is on record as 11%. For the same substance, in data set [1], the “He (%)” value is on record as 66%.

Take “P~~~LFRELLNELLEALKQKLK (PLFRELLNELLEALKQKLK) [Peptide 55]”: in the data set with LCAT, the “ACTIVITY (%) LCAT” value is recorded as 19%. Also, in data set [1], the “He (%)” value is recorded as 72%.

Take “PVLDLFRELWEELKQKLK* (not fully specified (N-terminus, C-terminus); printed as PVLDLFRELWEELKQKLK*) [Peptide 199]”: in the data set with LCAT, the “ACTIVITY (%) LCAT” value is on record as 76%. In data set [1], the “He (%)” value is reported as 77%.

Regarding PAADAFREAANEAAEAAKQKAK [Peptide 105], in the data set with LCAT, the “ACTIVITY (%) LCAT” value was 1%. The “He (%)” value in data set [1] is on record as 28%.

With “PVLDLFRELLWEXLEALKQKLK (PVLDLFRELLWE[Aib]LEALKQKLK; not fully specified (C-terminus)) [Peptide 50]”, in the data set with LCAT, the “ACTIVITY (%) LCAT” value is recorded as 21%. For the same substance, in data set [1], the “He (%)” value was 84%.

For the substance “PVLDEFRELLNEXLEALKQKLK (PVLDEFRELLNE[Aib]LEALKQKLK; not fully specified (C-terminus)) [Peptide 91]”, in the data set with LCAT, the “ACTIVITY (%) LCAT” value is on record as 6%. The “He (%)” value in data set [1] is 100%.

Turning to “PVLDLFRELLEELKQKLK* (not fully specified (N-terminus, C-terminus); printed as PVLDLFRELLEELKQKLK*) [Peptide 193]”, the “ACTIVITY (%) LCAT” value with LCAT is reported as 96%. Besides, the “He (%)” value in data set [1] was 88%.

“pvldlfrellneXlealkgklk ([dP][dV][dL][dD][dL][dF][dR][dE][dL][dL][dN][dE][Aib][dL][dE][dA][dL][dK][dQ][dK][dL][dK]) [Peptide 96]”: the “ACTIVITY (%) LCAT” value with LCAT is 5%. Moreover, the “He (%)” value in data set [1] was 85%.

Take “PVLDZFRELLNELLEALKQKLK (PVLD[Nal]FRELLNELLEALKQKLK; not fully specified (C-terminus)) [Peptide 34]”: the “ACTIVITY (%) LCAT” value in the data set with LCAT is 32%. Besides, the “He (%)” value in data set [1] is on record as 67%.

Take “PVWDEFREKLNEXLEALKQKLK (PVWDEFREKLNE[Aib]LEALKQKLK; not fully specified (C-terminus)) [Peptide 52]”: the “ACTIVITY (%) LCAT” value with LCAT was 20%. For the same substance, the “He (%)” value in data set [1] was “sp”.

“PVLDLFRELLNLXLEALKQKLK (PVLDLFRELLNL[Aib]LEALKQKLK; not fully specified (C-terminus)) [Peptide 95]”: the “ACTIVITY (%) LCAT” value with LCAT is 5%. For the same substance, the “He (%)” value in data set [1] is “sp”.

Regarding “klkqklaellenllerfldlvp (KLKQKLAELLENLLERFLDLVP; not fully specified; D-amino acids; D-Lys; D-Leu; D-Gln; D-Ala; D-Glu; D-Asn; D-Arg; D-Phe; D-Asp; D-Val; D-Pro) [Peptide 107]”, in the data set with LCAT, the “ACTIVITY (%) LCAT” value was 0%. Besides, the “He (%)” value in data set [1] is reported as “sp”.

As to “PVLDLFRELLNELLEZLKQKLK (PVLDLFRELLNELLE[Nal]LKQKLK; not fully specified (C-terminus)) [Peptide 1]”, the “ACTIVITY (%) LCAT” value with LCAT was 120%. In addition, the “He (%)” value in data set [1] was 85%.

Regarding PVLDLFRELLNELLEALKQKLK^† [Peptide 30], in the data set with LCAT, the “ACTIVITY (%) LCAT” value was 38%. Moreover, in data set [1], the “He (%)” value is given as 90%.

Turning to “PVLDEFRELLFEXLEALKQKLK (PVLDEFRELLFE[Aib]LEALKQKLK; not fully specified (C-terminus)) [Peptide 76]”, the “ACTIVITY (%) LCAT” value with LCAT is on record as 9%. For the same substance, in data set [1], the “He (%)” value is recorded as 88%.

As for “PVLDLFREKLNEXLEALKQKLK (PVLDLFREKLNE[Aib]LEALKQKLK; not fully specified (C-terminus)) [Peptide 46]”, the “ACTIVITY (%) LCAT” value with LCAT is 23%. Further, in data set [1], the “He (%)” value is given as 86%.

Turning to “PVLDEFRELLYEXLEALKQKLK (PVLDEFRELLYE[Aib]LEALKQKLK; not fully specified (C-terminus)) [Peptide 70]”, the “ACTIVITY (%) LCAT” value in the data set with LCAT is 12%. Besides, the “He (%)” value in data set [1] is on record as 78%.

Take “pvldefreklneXlealkgklk ([dP][dV][dL][dD][dE][dF][dR][dE][dK][dL][dN][dE][Aib][dL][dE][dA][dL][dK][dQ][dK][dL][dK]) [Peptide 44]”: the “ACTIVITY (%) LCAT” value with LCAT was 25%. For the same substance, the “He (%)” value in data set [1] was 86%.

On to “DWLKAFYDKVAEKLKEAF* (not fully specified (N-terminus, C-terminus); printed as DWLKAFYDKVAEKLKEAF*) [Peptide 240]”, for which the “ACTIVITY (%) LCAT” value in the data set with LCAT is 10%. In data set [1], the “He (%)” value is given as 68%.

Turning to ~VLDLFRELLNELLEALKQKLK [Peptide 67], the “ACTIVITY (%) LCAT” value in the data set with LCAT is recorded as 14%. Further, in data set [1], the “He (%)” value is reported as 90%.

Consider PVLELFENWLERLLDALQKKLK [Peptide 162], for which the “ACTIVITY (%) LCAT” value with LCAT is listed as 27%. In addition, in data set [1], the “He (%)” value was 83%.

With PVLDWFRELLNELLEALKQKLK [Peptide 35], the “ACTIVITY (%) LCAT” value with LCAT is reported as 31%. Further, in data set [1] (free peptide), the “He (%) free” value is 49 (sp) %. Moreover, the “He (%)” value in data set [1] is 59%.

Turning to “P~~~~~~~LLNELLEALKQKLK (PLLNELLEALKQKLK) [Peptide 104]”, the “ACTIVITY (%) LCAT” value with LCAT is given as 1%. In addition, in data set [1], the “He (%)” value is given as 49%.

In the case of PVLDLFRELLELLKQKLK [Peptide 217], in the data set with LCAT, the “ACTIVITY (%) LCAT” value is recorded as 30%. Besides, the “He (%)” value in data set [1] is listed as 78%.
